T1: Zaire ebolavirus (ZEBOV) GP (Zaire ebolavirus, UniProt Q05320 33-676)
T1 construct: whole, on cells; also called Zaire GP
T1 sequence: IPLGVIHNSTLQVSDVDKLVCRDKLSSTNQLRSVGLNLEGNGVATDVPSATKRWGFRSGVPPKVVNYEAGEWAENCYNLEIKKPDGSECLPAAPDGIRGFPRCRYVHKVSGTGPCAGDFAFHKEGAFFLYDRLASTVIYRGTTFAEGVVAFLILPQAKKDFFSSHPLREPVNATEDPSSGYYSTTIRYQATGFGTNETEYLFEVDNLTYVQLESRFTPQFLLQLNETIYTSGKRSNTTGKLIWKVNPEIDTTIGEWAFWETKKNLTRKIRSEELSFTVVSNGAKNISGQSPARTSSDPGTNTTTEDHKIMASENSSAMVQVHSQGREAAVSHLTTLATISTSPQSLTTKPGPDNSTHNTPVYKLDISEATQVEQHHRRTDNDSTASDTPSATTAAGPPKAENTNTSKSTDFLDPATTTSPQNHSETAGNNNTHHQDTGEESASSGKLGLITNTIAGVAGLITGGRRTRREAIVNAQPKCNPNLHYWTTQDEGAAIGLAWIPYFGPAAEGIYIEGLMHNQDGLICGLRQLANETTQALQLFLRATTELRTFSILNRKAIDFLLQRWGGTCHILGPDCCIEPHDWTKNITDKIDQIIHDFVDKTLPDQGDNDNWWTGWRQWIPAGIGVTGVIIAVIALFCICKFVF

B1: monoclonal antibody 16F6 (murine IgG1) (antibody, V domains shown)
VH: EVQLVESGGGLVTPGGSLKLSCAASGFAFNYYDMFWVRQNTEKRLEWVAYINSGGGNTYYPDTVKGRFTISRDNAKKTLFLQMSSLRSEDTAMYYCARQLYGNSFFDYWGQGTSLTVSA
VL: DIVMTQSHKFMSTSVGDRVTITCKASQDVTTAVAWYQQKPGHSPKLLIYWASTRHTGVPDRFTGSGSGTDFTLTLNSVQAEDLALYYCQQHYSTPLTFGAGTKLELK
notes: also called mAb 16F6; MAb 16F6

Assays:
[1] = biological target: Zaire ebolavirus (ZEBOV) GP (Zaire ebolavirus) (UniProt Q05320); assay: cell-based or functional assay
[2] = biological target: T1, Zaire ebolavirus (ZEBOV) GP; assay: flow cytometry on infected Vero cells (FIG. 15)

Molecule | neutralization of Zaire GP-pseudotyped VSV on 293 cells [1] | binding result [2]
monoclonal antibody KZ52 | 90% | 
B1 |  | no binding

Reference: patent US20120164153A1 (GOVERNMENT OF THE UNITED STATES AS REPRESENTED BY THE …, published 2012)
